Test results: the DeepSol protein solubility set

Assay: soluble on expression in E. coli; label from the status in PepcDB or PDB records

Question: For “MEENGMKSKILIFGGTGYIGNHMVKGSLKLGHPTYVFTRPNSSKTTLLDEFQSLGAIIVKGELDEHEKLVELMKKVDVVISALAFPQILDQFKILEAIKVAGNIKRFLPSDFGVEEDRINALPPFEALIERKRMIRRAIEEANIPYTYVSANCFASYFINYLLRPYDPKDEITVYGTGEAKFAMNYEQDIGLYTIKVATDPRALNRVVIYRPSTNIITQLELISRWEKKIGKKFKKIHVPEEEIVALTKELPEPENIPIAILHCLFIDGATMSYDFKENDVEASTLYPELKFTTIDELLDIFVHDPPPPASAAF”, which “soluble on expression in E. coli” value is on record?
Answer: soluble

Question: Which “soluble on expression in E. coli” value does the source give for “MDGDFRTSFVREPAGLRPYPALVLNADYRPLSYYPLSLWPWQEAIKAAFLDRVSIVAEYDQVVRSQRAALRIPSVVVLKEFVSPQKRVAFTRFNLFLRDEFRCQYCGAKGDLTFDHVVPRARGGVTSWQNVVAACSPCNLHKGSKTLKQAGMRLARIPREPTPAEMQRHGQRFPPNHLHDSWLDYLYWDAELEALEHHHHHH” here?
Answer: not soluble

Question: Which “soluble on expression in E. coli” value does the source give for “AHHHHHHGSGWWYTTNLRSRSNDMDKPEEILNEKDIIKRAYKFGFYVGLHGHTDWFGWVAEVKKKIYEEAKHLGVYEEVKKAYIKGKKAGRVEREKRIHLGLMKQTTSEIPEKIKIVSIERNRGSIASLNFPKIEDMPKTIKKPRFFRLPKILRGGEE” here?
Answer: not soluble

Question: For “MIPEPDILVVGGGLGGVAAALAACRAGRSVVLTEETDWIGGQLTSQAVPPDEHPWVEQFGTTATYRRLREGIRQYYRQWYPLRAEAAALTDLNPGAGRVSKLCHEPRVALAVLEGMLAPHRAAGRLTVLTEHRPVAAETDNDVVRAVTLEDLRDGTRRTVPARYVLDATETGELLHLAGVEHVNGAESRAEFDEPHAPDRAQPGNQQGITVCFALSHHEGEDHTIDRPADYDFWRDYKPDFWPGPLLGFEAPDPRTLEPVPRTFEPNPDLDPLAVSADQSADAGDKELWGFRRILARKLHTDGAFDSDITLVNWPLNDYWLKPYIGQEAEALREARQLSLSVLYWLQTEAPRTDGGTGFPGLRPRPDVTGTADGLAKAAYVRESRRIKAVTTVTEHDVSIDLLGPYGRTRHRDSVGVGNYRIDLHPSTGGDGYVDIGSVPFEIPLGALVPRRVRNLLPAGKNLGTTHITNGCYRLHPVEWNVGEVAGALAAHCLAEDVEPHQVQAEDKRFEEFARVLDHDGVQRHWPDVRGYLEHHHHHH”, which “soluble on expression in E. coli” value is on record?
Answer: not soluble

Question: Which “soluble on expression in E. coli” value does the source give for “MPSSSNSAAFSLDEFAKALDKHDYHAEKGQTVHGKICQHANEGVYVDFGGKSPGFVPVQELGLRPHAEIEDSFPLDSAWDFLVTSEQNDEGQVRLSRRQLQIQQSWENLAELEESGKTLEMVVTGTNKGGVVGDVEGLRGFIPRSHLMHKDNMDALVGQVLKAHILEANQDNNKLVLTQRRIQQAESMGKIAAGNIYEGKVAKIQPYGVFVEIEGVTGLLHVSQVSGTRVDSLNTLFAFGQAISVYVQEIDEYKNRISLSTRILETYPGELVEKFDEMMADAPNRLPLVQSKQNLGDKQEQLEKSLEHHHHHH” here?
Answer: not soluble

Question: Which “soluble on expression in E. coli” value does the source give for “MAHHHHHHMATLTEDEIAPSAIAAERERLQEATQHVAELERRLDALQRELEAACTRREQLLLSVQWRELMAAVNADEDVYAVAERMMDAFAAFRESLVEPENYLQEQREEVLKEDDIVPYSDTDDYADFSGVEAVVEELLAAVKEQLESHAAAPPSSFRQTKHSSLRGSFASDERPKHPDGESAEAHKVSADARRQALLKLLVITVLMGRVEQYCRFKSISDASNVPQSEAEEMRDGVASVWQWLFHEQPGVLTAEEGAEWKHIAGAFLGDSYTVAP” here?
Answer: not soluble

Question: For “MISLPAGSRIWLVAGITDMRNGFNGLASKVQNVLKDDPFSGHLFIFRGRRGDQIKVLWADSDGLCLFTKRLERGRFVWPVTRDGKVHLTPAQLSMLLEGINWKHPKRTERAGIRI”, which “soluble on expression in E. coli” value is on record?
Answer: not soluble

Question: Which “soluble on expression in E. coli” value does the source give for “MGSDKIHHHHHHMKYRRIKGTNDIFGEEIWYWRYVEETFRNVCESAGIEEIRTPIFEQTELFVRSVGEESDIVQKEMYTFQDKAGRSITLRPEGTAPVVRAFLENSLIDRGFQQRYYYIGPMFRYEKPQSGRLRQFHQVGFEIIGPESPKADFEVIMLVDTFLRRLGLTKYKIHLNSIGCPVCRKNYREALKEYYGRILDNLCDDCKRRYETNILRLLDCKVDHEYSLNAPKSVDYLCDSCRAHYKKLKEYLNTFEIEYVEDHTLVRGLDYYTRTVFEVRHEGLGAQSAIAGGGRYDGLFAELGGSSVPALGFAGGIERIILALKAEGIEIPMKNVHLVYIATLGEKAFMDGVRLAGELRKKGLSVDVDIMDRKLSGQLKHASRMGSRYAVIIGDEELEKGIVILRDLETGDQVEIDRDFAADYIAERVSKD” here?
Answer: not soluble

Question: Which “soluble on expression in E. coli” value does the source give for “MGSDKIHHHHHHMIEVSRFWRDPALPFVEARQVGDGRKVCYAAHSHESFSIGVITGGRSTYINSDQCVEVGAGTTVLMNPGVVHTCNPVAGEPWSYLMLFVDQPWLQAVGFTLPTQTWSRSPVLYRRLLQAFADLFDARLPDREARLAALFHELPGMLGGNASEGGEGNPRLDAAAAFIRAHRSDPLSLEDICGACGLSRSYLIRAFRQRFGLTPHGYLLDQRVQLARAQLRQGRSIAEVAQEAGFADQAHLQRAFKQHLAATPGHYRNAVASLGAPAGAVQALKDQVNRAGDQ” here?
Answer: not soluble

Question: Which “soluble on expression in E. coli” value does the source give for “MAHHHHHHMQRYLMNTSYLQGQLKSLYALHNKTVADYGELVQNLNEECTILCDVVPSYRISSTLENEDGGGQRKQKEVYNVQKLEHEILTQYTHFLQLLRKLSRKSHPEQQALGSRLCARLVKSSAPEFNHADALLSLAIDFANSKSVRVAQPCQTALSELLDDQKVSDTTEHIVGALLRIVRKRSYAMNPKLLNLLLHVRVAMVDVHREDLAEEKAKSKRLKKEDKELARQLQKSKARRDRAEIAAKQTRILHRIFVIYLRVIEASKTCSPVHQTKILAPTLEGLVKFAPLVNLELYQQLMEALKDLVKGGGTSRTRLRVGGTEGGSDGDNVDDKHEEETATSVTTRLHALVAVATLAQRDATATASEWRVDLSYFHEVLFRCLGEALELPSAESSSSAKMTREGEQEASNGDMDEVASQGSTSSAGSLSSQAFSIAQSMTQGTLVHQNASREWTFHVGLVLRAVDLLVLTQKHLPVARVTAILRRLIQATPLCPPHIAMSILALCHRIVLRYPLAGGVIVGGSDNVIAGRGAYNPEALQTASANADSSFTWELSLLSHSYHPTLRQVAETMCKHYHKVSKHQHGQAPIVTKQLDSLGPYEVIEEYDPSLGNLKPAAPLPTALKAEVRKRQREEAQAYEVA” here?
Answer: not soluble

Question: For “MLCSMGTLFQRLSSLDGKGYGAYKSIAGRHALEGVPGAELFLDKVQSDPYAPASLSRVRVPLAALPFSGSLSTHQRDLLNRRIAGEFCHGLAIDCPGQQVLSRAAVTQLDDALQICFEVQLPARGRRIRGREAAQLLCTTLSRALDRALCITAGGDALRAELEAAAELERDQAALR”, which “soluble on expression in E. coli” value is on record?
Answer: not soluble

Question: Which “soluble on expression in E. coli” value does the source give for “FYDPLVFPSDEFDASISQVNEKINQSLAFIRKSDELLHNVNAG” here?
Answer: soluble

Question: For “MNVRNGKASTLRTNDVEPIKDSFSILIIGVDTSTTRASNGNPRSDSLILATFNVKDARVEMTSIPRDSYVHIEDSAKEINKYTKINAAHAYGGPELTMKTVEEEFKIPIDYYVRFDFDAFLKIIDALDGIDVDVPVNFTEQDSKDNQNAITLKKGPQHLNAEQALALARTRHIDSDIERGKRQQLIIKSIVSEATSVSSVSKYSDIIEVVGDNMKTNLTFNQMLSIAKFGMSNKIDIKSLNLKGDSNPMNGIYYYKLNESSVQSISNEFASELGIKQPFPGAAAYSDESSTASNLEHHHHHH”, which “soluble on expression in E. coli” value is on record?
Answer: soluble

Question: For “MIELKPPDVMPNGNIGTPSQYFLEQIRLCRLPTTVISKLGIQTQKRKKKFGEVDFQYEKTDSCKAEKIKCETIPGVEDELEDPTERVRMNQNPEDNDDGKDDDNDQCEEWERHEALHEDVTEQDRAKPRKYEEEMEVTWEKGGPGLVWYTDKNYWDEREKGTDCDWAWADDWDVDYSVYYEGKSAGDMDAKAAIEMRNDDLMRSGKLEQSAFTKKRNPHNLGTTRKRRNSDGGGSSEKASENLQKGIGGSMLAKMGWKPGTGLGKNEQGRVVPVAVYVEEDGQSSKEKTGFGYRGEKLSRVVQKKTIRHVIASAFDSVTDREQCEDKQSEEELHGEILFRRSEVTKMNKFQVLKLQFPKRNIQKTKTFQNFGKLSKCTQLYRFFLMN”, which “soluble on expression in E. coli” value is on record?
Answer: not soluble

Question: With “MRAILILLDGLGDRASEILNNKTPLQFAKTPNLDRLAENGMCGLMTTYKEGIPLGTEVAHFLLWGYSLEEFPGRGVIEALGEDIEIEKNAIYLRASLGFVKKDEKGFLVIDRRTKDISREEIEKLVDSLPTCVDGYKFELFYSFDVHFILKIKERNGWISDKISDSDPFYKNRYVMKVKAIRELCKSEVEYSKAKDTARALNKYLLNVYKILQNHKINRKRRKLEKMPANFLLTKWASRYKRVESFKEKWGMNAVILAESSLFKGLAKFLGMDFIKIESFEEGIDLIPELDYDFIHLHTKETDEAAHTKNPLNKVKVIEKIDKLIGNLKLREDDLLIITADHSTPSVGNLIHSGESVPILFYGKNVRVDNVKEFNEISCSNGHLRIRGEELMHLILNYTDRALLYGLRSGDRLRYYIPKDDEIDLLEG” as the sequence, how does the “soluble on expression in E. coli” value read?
Answer: not soluble

Question: For “MKVVPAQRCVYSFSANMAPVEEVYPGEQVVFETLDALGGSYDKIDFSKVNPATGPVFVNGVKPGDTLKVRIKRIELPRRGMIVTGKGFGVLGDEVEGFHTKELEIEKWAVLFDGVRIPIHPMVGVIGVAPQEGEYPTGTAHRHGGNMDTKEITENVTVHLPVFQEGALLALGDVHATMGDGEVCVSACEVPAKVVVEIDVSKEEIKWPVVETNDAYYIIVSLPDIEEALKEVTRETVWFIQRRKTIPFTDAYMLASLSVDVGISQLVNPAKTAKARIPKYIFTGVLEHHHHHH”, which “soluble on expression in E. coli” value is on record?
Answer: not soluble

Question: For “MNQLIFDFAAHDYPSFDKFLGTENAELVYVLRHKHGQFIYVWGEEGAGKSHLLQAWVAQALEAGKNAAYIDAASMPLTDAAFEAEYLAVDQVEKLGNEEQALLFSIFNRFRNSGKGFLLLGSEYTPQQLVIREDLRTRMAYCLVYEVKPLTDQEKIDALASMAAARQVTVDSEIFEYLLKHWRRDMDSLMMMLDTLDNYAVTMGKRITLPLLRQLLKQQETQ”, which “soluble on expression in E. coli” value is on record?
Answer: not soluble

Question: With “MGSDKIHHHHHHMRIAAYENFITKLLMNNKCMDINEIDKYILRTTSNNYNLVKKQLDRTNKLLEERYERYGCLTEEDNVEALKKGYYDLGKIGLTLEEIRKKIAKFQIDKESPMGIQIEKDWNFATFLLQDLLQLENMNLITYSRLLEERLSELSKNKTNKKTYNKPNNKETTIKTNSPTTNSSDIMTIDEICALLHLSKSKIYHMACAHEIPHHKLNPSKKGRLYFFRSEIEEWLRNKRIRTVDEFLLQFEN” as the sequence, how does the “soluble on expression in E. coli” value read?
Answer: not soluble

Question: For “SEKNPPDDTGPVHVPLGHIVANEKWRGSQLAQEMQGKIKLIFEDGLTPDFYLSNRCCILYVTEADLVAGNGYRKRLVRVRNSNNLKGIVVVEKTRMSEQYFPALQKFTVLDLGMVLLPVASQMEASCLVIQLVQEQTKEPSKNPLLGKKRALLLSEPSLLRTVQQIPGVGKVKAPLLLQKFPSIQQLSNASIGELEQVVGQAVAQQIHAFFTQPR”, which “soluble on expression in E. coli” value is on record?
Answer: soluble

Question: Which “soluble on expression in E. coli” value does the source give for “MGSRENLYFQGLEHHHHHHHMKIISKMLVGALALAVTNVYAAELMTKAEFEKVESQYEKIGDISTSNEMSTADAKEDLIKKADEKGADVLVLTSGQTDNKIHGTANIYKKK” here?
Answer: soluble

Question: For “MGSDKIHHHHHHMNMLVRFFIMVSLLKQQLNKQLATEYLSVERLMAPVVRHYRVLPHDMGFRDHLPNYRYLSFIELNITNWLMACCHQKGIKNLGWIIAMQEMVYLKQIKFLDKMTVNSRVVGWDKKYVYFEHQFFVKNQLMAMGMTKFVLTNKQGKCATEVLDMTGEQLNEVIDTWSQHQVAIKSAKSTESTKAA”, which “soluble on expression in E. coli” value is on record?
Answer: not soluble
